Assay results from patent US20230257444A1, “FUSION PROTEIN AND COMBINATIONS THEREOF” (Agency for Science, Technology and Research, priority 2020, published 2023).

Key:
Experiment in all cases: Surface plasmon resonance: binding to immobilised Fc receptor
FcγRIIIa = target: T1, FcγRIIIa (Homo sapiens, UniProt P08637, F176V); settings: SPR
T1 construct: soluble ectodomains of FcR from R&D Systems; purchased R&D Systems 4325-FC-050
Source text: (§1) A BIAcore T200 SPR Biosensors (GE Healthcare) was used to assay the interaction of soluble ectodomains of FcR from R&D Systems with hDectin1-Fc and IgG1. Amine coupling via N-hydroxysuccinimide ester was formed on a CM5 sensor chip surface according to a procedure recommended by the manufacturer. Ectodomains were immobilized at acidic pH, resulting in the following densities: FcγRI (#1257-FC-050): 1919 RU, FcγRIIa (#1330-CD-050/CF):1766 RU, FcγRIIb/c (#1875-CD-050): 1972 RU, FcγRIIIa (#4325-FC-050): 2275 RU, FcγRIIIb (#1597-FC-050/CF): 2393 RU, FcRn (#8639-FC-050): 2836. A range of hDectin1-Fc/IgG1 concentrations was injected into flow cells at a flow rate of […], with a contact and dissociation time of 300 and 900 seconds, respectively. After each assay cycle, the sensor chip surface was regenerated using 10 mM NaOH. Binding response was recorded as resonance units (RU; 1 RU=1 pg/mm^2) continuously, with background binding automatically subtracted. Due to the polyclonal nature of the hDectin1-Fc/IgG1 recombinant proteins used, kinetic constants (kon, koff, t1/2) were not determined, and the KD was calculated by analyzing the concentration-dependence of the steady-state signal reached at the end of the injection using BIA evaluation version 3 software (GE Healthcare) and Scrubber version 2 software (BioLogic Software, Campbell, Australia). The steady-state response was plotted against the concentration of hDectin1-Fc/IgG1 and fitted using Origin software.
(§2) Antibody mediated immune activation depends on the strength of binding and affinity of the Fc to the various Fcγ receptors. Binding to the neonatal receptor FcRn is also important for the half-life in serum and the transcytosis across endothelial cells into various tissues. Surface plasmon resonance was used to evaluate the binding of the Immunoglobulin G's Fc of hDectin1-Fc to the various Fc receptors (FcγRI, FcγRIIa, FcγRIIb, FcγRIIIa, FcγRIIIb and FcRn) present on immune cells by flowing free hDectin1-Fc of various concentrations over immobilised Fc receptors (FIG. 11A-F). […] High affinity FcγRI(CD64) is expressed on macrophages, monocytes and neutrophils and low affinity FcγRIIIa (CD16a) is expressed on natural killer cells, monocytes, macrophages and neutrophils. Both CD64 and CD16a activating receptors have Immunoreceptor Tyrosine based Activation Motif (ITAM) signalling domain. FcγRI strongly binds IgG opsonized targets to trigger phagocytosis and a proinflammatory response of TNFα, IFNγ and production of oxidative species. FcγRIIIa likewise activate degranulation, phagocytosis, and oxidative burst.

FcγRIIb = target: T2, FcγRIIb (Homo sapiens, UniProt P31994); settings: SPR, steady state
T2 construct: soluble ectodomains of FcR from R&D Systems; purchased R&D Systems 1875-CD-050
T2 sequence (P31994 43-217 limits assumed): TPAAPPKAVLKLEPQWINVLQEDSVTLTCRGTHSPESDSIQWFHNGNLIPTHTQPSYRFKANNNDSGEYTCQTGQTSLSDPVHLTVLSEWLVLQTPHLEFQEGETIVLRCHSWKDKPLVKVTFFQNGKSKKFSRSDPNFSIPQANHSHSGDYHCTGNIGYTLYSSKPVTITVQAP
Source text: as §1, §2

FcγRIIa = target: T3, FcγRIIa (Homo sapiens, UniProt P12318, H167R); settings: SPR, steady state
T3 construct: soluble ectodomains of FcR from R&D Systems; purchased R&D Systems 1330-CD-050/CF
T3 sequence (P12318 34-217 H167R limits assumed): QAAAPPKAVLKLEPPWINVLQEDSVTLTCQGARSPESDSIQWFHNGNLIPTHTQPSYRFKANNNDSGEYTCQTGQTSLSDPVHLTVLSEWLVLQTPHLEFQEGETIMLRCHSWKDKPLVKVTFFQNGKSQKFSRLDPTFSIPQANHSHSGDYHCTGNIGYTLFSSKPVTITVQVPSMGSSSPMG
Source text: as §1, §2

FcRn = target: T4, FcRn (Homo sapiens, UniProt P55899); settings: SPR
T4 construct: soluble ectodomains of FcR from R&D Systems; purchased R&D Systems 8639-FC-050
Source text: as §1, §2

FcγRIIIb = target: T5, FcγRIIIb (Homo sapiens, UniProt O75015); settings: SPR, steady state
T5 construct: soluble ectodomains of FcR from R&D Systems; purchased R&D Systems 1597-FC-050/CF
Source text: as §1, §2

FcγRI = target: T6, FcγRI (Homo sapiens, UniProt P12314); settings: SPR
T6 construct: soluble ectodomains of FcR from R&D Systems; purchased R&D Systems 1257-FC-050
Source text: as §1, §2

T1 sequence (P08637 17-208 F176V limits assumed): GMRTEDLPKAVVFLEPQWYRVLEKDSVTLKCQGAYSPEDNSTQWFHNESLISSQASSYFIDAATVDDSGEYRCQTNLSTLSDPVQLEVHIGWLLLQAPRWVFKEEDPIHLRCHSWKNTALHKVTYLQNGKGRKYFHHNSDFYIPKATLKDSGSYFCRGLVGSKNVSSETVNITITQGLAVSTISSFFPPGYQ
T4 sequence (P55899 24-297 limits assumed): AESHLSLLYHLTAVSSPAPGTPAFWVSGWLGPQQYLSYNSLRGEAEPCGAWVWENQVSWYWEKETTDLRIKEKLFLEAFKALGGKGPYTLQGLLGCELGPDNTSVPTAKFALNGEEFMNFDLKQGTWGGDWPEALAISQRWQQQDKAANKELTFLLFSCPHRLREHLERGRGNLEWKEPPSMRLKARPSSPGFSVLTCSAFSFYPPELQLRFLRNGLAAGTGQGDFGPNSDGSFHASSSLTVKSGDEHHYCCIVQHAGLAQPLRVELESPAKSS
T4 sequence (P61769 21-119 partner): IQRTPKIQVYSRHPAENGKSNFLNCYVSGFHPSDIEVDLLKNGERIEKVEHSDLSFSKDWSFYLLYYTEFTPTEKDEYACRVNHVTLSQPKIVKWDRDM
T6 sequence (P12314 16-292 limits assumed): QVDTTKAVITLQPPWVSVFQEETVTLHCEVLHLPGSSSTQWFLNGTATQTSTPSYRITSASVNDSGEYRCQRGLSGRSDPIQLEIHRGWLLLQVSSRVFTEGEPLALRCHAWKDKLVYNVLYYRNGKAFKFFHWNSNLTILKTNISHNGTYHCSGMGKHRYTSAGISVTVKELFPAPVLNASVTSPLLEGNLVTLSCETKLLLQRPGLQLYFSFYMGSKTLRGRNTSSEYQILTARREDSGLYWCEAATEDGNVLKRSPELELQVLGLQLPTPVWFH
T5 sequence (O75015 17-200 limits assumed): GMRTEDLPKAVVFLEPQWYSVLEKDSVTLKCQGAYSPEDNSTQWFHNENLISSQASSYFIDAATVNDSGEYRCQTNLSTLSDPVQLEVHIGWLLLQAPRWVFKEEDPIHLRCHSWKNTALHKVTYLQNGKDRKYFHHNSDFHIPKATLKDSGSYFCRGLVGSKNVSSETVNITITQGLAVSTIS

hDectin1-Fc: soluble dimeric fusion protein: human Dectin-1 receptor polypeptide (aa 73-247) fused to human IgG1 Fc via hinge; SEQ ID NO: 5
able to interact with and bind to: binding to FcγRIIIa (Binding Constant KD screen) (FcγRIIIa; steady state) | binding to FcRn (Binding Constant KD screen) (FcRn; steady state) | binding to FcγRI (Binding Constant KD screen) (FcγRI; steady state)
bind to FcγRI, FcγRIIIa and FcRn only: binding to FcγRIIb (Binding Constant KD screen) (FcγRIIb) | binding to FcγRIIa (Binding Constant KD screen) (FcγRIIa) | binding to FcγRIIIb (Binding Constant KD screen) (FcγRIIIb)
moderately weaker binding: KD for FcγRIIIa compared with Herceptin (FcγRIIIa) | KD for FcRn compared with Herceptin (FcRn) | KD for FcγRI compared with Herceptin (FcγRI)
